Source: US20160263155A1, “T CELL RECEPTORS DIRECTED AGAINST THE PREFERENTIALLY EXPRESSED ANTIGEN OF MELANOMA AND USES THEREOF” (LEIDEN UNIVERSITY MEDICAL CENTER, priority 2015, published 2016)
Changes are numbered by the printed parent chain. Names may count otherwise.

B1: N405Q-T3175 (protein, UniProt P55211 1-416, looked up, variant N405Q T317S)
chain: MDEADRRLLRRCRLRLVEELQVDQLWDALLSRELFRPHMIEDIQRAGSGSRRDQARQLIIDLETRGSQALPLFISCLEDTGQDMLASFLRTNRQAAKLSKPTLENLTPVVLRPEIRKPEVLRPETPRPVDIGSGGFGDVGALESLRGNADLAYILSMEPCGHCLIINNVNFCRESGLRTRTGSNIDCEKLRRRFSSLHFMVEVKGDLTAKKMVLALLELAQQDHGALDCCVVVILSHGCQASHLQFPGAVYGTDGCPVSVEKIVNIFNGTSCPSLGGKPKLFFIQACGGEQKDHGFEVASTSPEDESPGSNPEPDASPFQEGLRTFDQLDAISSLPTPSDIFVSYSTFPGFVSWRDPKSGSWYVETLDDIFEQWAHSEDLQSLLLRVANAVSVKGIYKQMPGCFQFLRKKLFFKTS
B2: N405Q-S144Aco (protein, UniProt P55211 1-416, looked up, variant N405Q S144A)
chain: B1 chain with S144A, S317T
modifications: codon optimized
B3: N405Q-T317Sco (protein, UniProt P55211 1-416, looked up, variant N405Q T317S)
chain: B1 chain
B4: N405Qco: Caspase-9 mutant (protein, UniProt P55211 1-416, looked up, variant N405Q)
chain: B1 chain with S317T
modifications: codon-optimized
notes: Caspase-9 mutant
B5: N405Q-S144A (protein)
chain: GFGDVGALEALRGNADLAYILSMEPCGHCLIINNVNFCRESGLRTRTGSNIDCEKLRRRFSSLHFMVEVKGDLTAKKMVLALLELAQQDHGALDCCVVVILSHGCQASHLQFPGAVYGTDGCPVSVEKIVNIFNGTSCPSLGGKPKLFFIQACGGEQKDHGFEVASTSPEDESPGSNPEPDATPFQEGLRTFDQLDAISSLPTPSDIFVSYSTFPGFVSWRDPKSGSWYVETLDDIFEQWAHSEDLQSLLLRVANAVSVKGIYKQMPGCFQFLRKKLFFKTS
B6: F404W (protein)
chain: B5 chain with A10S, F270W, Q271N
B7: F406T (protein)
chain: B5 chain with A10S, Q271N, F272T
B8: D330E (protein)
chain: B5 chain with A10S, D196E, Q271N
B9: D315A (protein)
chain: B5 chain with A10S, D181A, Q271N
B10: F404Y (protein)
chain: B5 chain with A10S, F270Y, Q271N
B11: N405Q-S196D (protein)
chain: B5 chain with A10S, S62D
B12: D330A (protein)
chain: B5 chain with A10S, D196A, Q271N
B13: S307A (protein)
chain: B5 chain with A10S, S173A, Q271N
B14: F406A (protein)
chain: B5 chain with A10S, Q271N, F272A
B15: N405Q-S144D (protein)
chain: B5 chain with A10D
B16: F404T (protein)
chain: B5 chain with A10S, F270T, Q271N
B17: A316G (protein)
chain: B5 chain with A10S, A182G, Q271N
B18: F406W (protein)
chain: B5 chain with A10S, Q271N, F272W
B19: Y153F (protein)
chain: B5 chain with A10S, Y19F, Q271N
B20: Y153A (protein)
chain: B5 chain with A10S, Y19A, Q271N
B21: N405F (protein)
chain: B5 chain with A10S, Q271F
B22: F406Y (protein)
chain: B5 chain with A10S, Q271N, F272Y
B23: F319W (protein)
chain: B5 chain with A10S, F185W, Q271N

Test system: chimeric Caspase-9 polypeptide
Assay: Caspase mutant classes and basal activity (Table 3)
Format: cell-based, human
Conditions: class heading of Table 3; for IC50: ligand IC50

Chain of chimeric Caspase-9 polypeptide (as listed by the source, change not shown): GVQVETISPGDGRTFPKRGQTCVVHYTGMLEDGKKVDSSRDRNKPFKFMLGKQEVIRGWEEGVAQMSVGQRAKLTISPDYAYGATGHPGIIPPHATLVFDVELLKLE

Row | Molecule | Basal Activity | IC50 | Basal Activity (marked *, predicted)
1 | B1 | Decreased | higher IC50 | 
2 | B2 |  |  | Decreased
3 | B3 |  |  | Decreased
4 | B4 | Decreased | higher IC50 | 
5 | B5 | Decreased | higher IC50 | 
6 | B6 | Decreased | much higher | 
7 | B7 | Decreased | much higher | 
8 | B8 | Decreased | higher IC50 | 
9 | B9 | Decreased | much higher | 
10 | B10 | Decreased | higher IC50 | 
11 | B11 | Decreased | higher IC50 | 
12 | B12 | Decreased | higher IC50 | 
13 | B13 | Decreased | much higher | 
14 | B14 | Decreased | higher IC50 | 
15 | B15 | Decreased | higher IC50 | 
16 | B16 | Decreased | much higher | 
17 | B17 | Decreased | much higher | 
18 | B18 | Decreased | higher IC50 | 
19 | B19 | Decreased | much higher | 
20 | B20 | Decreased | much higher | 
21 | B21 | Decreased | much higher | 
22 | B22 | Decreased | higher IC50 | 
23 | B23 | Decreased | much higher | 
